Reference: patent US12495796B2, “Compositions, methods, and applications of a synthetic surfactant” (1283581 B.C. LTD, priority 2019, dated 2025)

Experiments:
[1] = Retention of pesticide (Bifenazate) in leaves with RSN 1-6 mixture as adjuvant, GC/MS quantification; format: in vivo, Arabidopsis thaliana (columbia ecotype); conditions: Floramite + RSN 1-6 mixture vs pesticide alone
Description: 12 four-week-old Arabidopsis thaliana (columbia ecotype) plants were used for the experiment. (6 control, 6 experimental) (FIG. 13).
Growth condition: plants were grown in soil at in 16-hour days/8-hour nights light cycle with temperatures of 22° C. Lighting was provided with fluorescent bulbs giving an average light intensity of 175 micromoles/meter^2 second. Seeds were cold treated (stratification) for 3 days at 4° C. after imbibition to synchronize germination
The experimental plants were applied with a mixture of Floramite® and RSN 1-6 mixture (50 μL of 10 mg/mL) directly to the leaves using a pipette. The control plants were applied with just the pesticide. Samples were collected at the end of 5 days and 10 days.
4 control leaves and 4 experimental leaves were collected at the end of 5 days and 10 days of application. The leaves were homogenized using liquid nitrogen and extracted using Methanol:Chloroform mix (2:1) (FIG. 14). […]
A GC/MS instrument (Thermo Focus GC, Polaris ion trap MS) with a DB-5 column was used for quantification of the pesticide. […]
Concentration of Bifenazate in control leaf sample −0.018 μg/μL (FIG. 15). […] Concentrations were calculated using the peak area of the internal standard compared to the peak area of the pesticide. The experimental leaf was calculated to have a 3.6 times the amount of Bifenazate when compared to the control leaf.

E. coli = assay: Kirby Bauer antimicrobial assay (disk-diffusion) on E. coli culture plates; format: cell-based, Escherichia coli; conditions: 24 hours; for antimicrobial properties / radius of resistance to the E. coli colonies: 20 μL of 10 mg/mL on filter paper disc, 37° C.; for effect on E. coli colonies (kills or slows growth): conclusion from disk-diffusion; for resistance to E. coli (in words): growth of colonies near the filter paper disc
Description: Antimicrobial agents stop the growth or kill microorganisms such as Escherichia coli (E. coli). The Kirby Bauer antimicrobial assay or disk-diffusion method is used to test what antibiotic will fight against which bacteria strain.^17 The Kirby Bauer antimicrobial assay, is most commonly used to monitor the growth of bacteria growth around a disk, measuring the radius/diameter of the growth from the disk if a gap is present; this can be done in a time period as short as 24 hours or as long as 5 days.^18
RSN mixture was prepared using equal parts of each protein (RSN 1-6) in a concentration of 10 mg/mL and vortexed until combined.^22 E. coli culture plates were prepared and allowed to dry, small filter paper circles were placed on the plate, with a 20 μL of the RSN sample labeled RSN 1-6.
Once the protein was placed on the E. coli culture plates, the plates were placed into a new Brunswick Scientific Excella E24 Incubator Shaker set at 37° C., for 24 hours. After 24 hours the plates were taken out of the incubator shaker and observed.

[2] = Denaturing of ranaspumin proteins with increasing temperature, monitored by circular dichromium (CD); format: physicochemical; conditions: CD 200-300 nm, 0.25 mg/mL, 20-90° C. in 5° C. steps
Description: The secondary structure of ranaspumin proteins can be confirmed with CD to identify if there is a presence of an α-helix, β-sheets or random coils. The CD can also be used to monitor the denaturing of a protein structure by observing the intensity of the bands on the spectra. This experiment uses increasing temperature to determine when ranaspumin proteins start to denature in the secondary structure with the use of a CD spectrum. A 3 mL solution with a concentration of 0.25 mg/mL of RSN 1-6 was diluted from a range of 2.69 mg/mL-0.50 mg/mL stock solution. The Jasco 815 […], with Jasco temperature controller and a water bath attachment was used to analyze the RSN 2 protein structure. The initial temperature was set to 20° C., the wavelength was set to 200-300 nm and the temperature was increased by 5° C. after each measurement and allowing for 60 seconds of stability before recording the next measurement, in a temperature range of 20-90° C. A bank was run for a baseline before a 1.5 mL solution was run through the CD and the spectra were monitored for a change in intensity in the bands.

COc1ccc(-c2ccccc2)cc1NNC(=O)OC(C)C [Bifenazate]
amount of Bifenazate in experimental leaf compared to control leaf ([1]; after 5 days): 3.6 times | amount of Bifenazate in experimental leaf compared to control leaf ([1]; after 10 days): 1.2 times

B1: RSN 2: recombinant mature ranaspumin protein without signal peptide, Synthetic Amino Acid Sequence No. 2; main surfactant (protein, listed as Engystomops pustulosus)
chain: LILDGDLLKDKLKLPVIDNLFGKELLDKFQDDVKDKYGVDTKDLKILKTSEDKRFYYVSVDAGDGEKCKFKIRKDVDVPKMVGRKCRKDDDDDDGY
antimicrobial properties (E. coli): presented antimicrobial properties | radius of resistance to the E. coli colonies (E. coli): 1.1 cm | effect on E. coli colonies (kills or slows growth) (E. coli): kills the E. coli colonies | resistance to E. coli (in words) (E. coli): high resistance | temperature at which the protein starts to denature [2]: 70 °C

B2: RSN 5: recombinant mature ranaspumin protein without signal peptide, Synthetic Amino Acid Sequence No. 5 (protein, listed as Engystomops pustulosus)
chain: GAPGGAAGPLLVLNILGSVVHETKPPEGVNLALKGIASSDSIASNGSVTGLAAKAIDGIRVSDFFKGHCSLTNGLNNPTWWKVDLKKSYKISSVFVTNRDDCCTERLLHAEIRIGSNPDHNHNPICAEVKTVASSNIGFCCGGMEGRYVSVSVPRKEQLSLCEVEVYGDLKKVLHCA
antimicrobial properties (E. coli): presented antimicrobial properties | radius of resistance to the E. coli colonies (E. coli): 0.7 cm | effect on E. coli colonies (kills or slows growth) (E. coli): slows the rate of the growth of the E. coli colonies | resistance to E. coli (in words) (E. coli): moderate resistance | temperature at which the protein fully denatures [2]: 70 °C

B3: RSN 1: recombinant mature ranaspumin protein without signal peptide, Synthetic Amino Acid Sequence No. 1 (protein, listed as Engystomops pustulosus)
chain: GGGNIGGGAKLGPEKPATPGIQDLLKSLLSVLNLSPPAIPEDAEAVSYRDAKNGKFRLIKIHLGGELYCHVKQIAGPILALPIVSDVVEVTGKECGKTEDDPLEDFPIP
antimicrobial properties (E. coli): did not show any antimicrobial properties | temperature at which the protein denatures further [2]: 70 °C | temperature at which the protein starts to denature [2]: 50 °C

B4: RSN 3: recombinant mature ranaspumin protein without signal peptide, Synthetic Amino Acid Sequence No. 3 (protein, listed as Engystomops pustulosus)
chain: IDPTGLVQILLLEQVVHKIPPGNINLARTGIATQDSDYTASAVPSEARLAIDGNRNSDFNQKSCSHTGGNEPAWWRLELKKKSKISVVVIAIRSDCCMDRFKGAELRIGNSQDATVNPICGKVSAVKGSNYLFCCDGMEGKYISVVIPDRHEFLSLCEVEVYGAKPIEGTHCK
antimicrobial properties (E. coli): did not show any antimicrobial properties | temperature at which the protein fully denatures [2]: 70 °C | temperature at which the protein starts to denature [2]: 70 °C

B5: RSN 4: recombinant mature ranaspumin protein without signal peptide, Synthetic Amino Acid Sequence No. 4 (protein, listed as Engystomops pustulosus)
chain: DRNLALDGRATMSSIWMDPDIRQSFLGVAMNGIDGNTDSVYFHGSCFHTGLDSPAWYRVDLLRTSKISSITITNRGDFGSRTNGAEIRIGDSLANNGNNNPRCALVTSIADGETRTFQCNNMVGRYVNIVLTGKTEFLHLCEVQIFGENLPRSFSCQYSNDGMITLLVSTRFMK
antimicrobial properties (E. coli): did not show any antimicrobial properties | temperature at which the protein denatures further [2]: 90 °C | temperature at which the protein starts to denature [2]: 50 °C

B6: RSN 6: recombinant mature ranaspumin protein without signal peptide, Synthetic Amino Acid Sequence No. 6 (protein, listed as Engystomops pustulosus)
chain: ETLCIPGRMKQLDAGAGRVVAVKSNGDVYQLLENNWVQIPGKLIHVTVGPAGLWGVNKDKNIYKYVDNDWLQVDGLLNQIDAGGNRFVVGVNDNEDIFCLNQDQTTSNAVKLDYKGVDGKLKYYSSGGYGSWGVNAAYDIFYRRNVHPMSCQGTNWENVEGKLVMLEVAEDGSVYGVNYNGHVYKREGITAGNPMGTSWTYLKVDEKVRHVSYDRGVLYVVTIDDRIFRC
antimicrobial properties (E. coli): did not show any antimicrobial properties | secondary structure staying intact up to [2]: 30-39 °C | slowly denatures until [2]: 90 °C | temperature at which the protein starts to denature [2]: 40 °C
